In experiment [1] the target is T1, recombinant GRP78 protein (human, UniProt P11021 19-650, limits assumed).
T1 construct: also called HSPA5/GRP78 (Active Protein) Human Protein (ORIGENE, Cat. No. AR03021PU-L); glucose-regulated protein 78
Put plainly: Biacore SPR, multi-cycle kinetics, GRP78 amine-coupled to the chip, G2D03 as analyte 0.625-10 nM, 1:1 fit. The source says: (§1) This ligand has the optimum pH 4.0 condition for direct immobilization by pH scouting test. With amine coupling method, carboxyl groups on the surface of the sensor chip surface are first activated with a mixture of EDC and NHS to give reactive succinimide esters. GRP78 is then passed over the surface and the esters react with primary amine groups to link the ligand covalently to the dextran matrix. The target level of the GRP78 protein is about 300 RU.
(§2) For the multi-cycle kinetics analysis, the chip surface level is 291.2 RU and the analyte concentration is used for the moderate Rₘₐₓ, which is running through the conditions in the assay. The concentrations of the anti-GRP78 antibody G2D03 are: 0.625 nM, 1.25 nM, 2.5 nM, 5 nM and 10 nM. Set the flow rate at 30 μL/min. Association time is 120 seconds. Dissociation time is 360 seconds. Regeneration buffer is performed using 10 mM glycine-HCl pH 1.7. […] The binding affinity of the anti-GRP78 antibody G2D03 is better than the conventional anti-GRP78 antibody C38.
For orientation: SPR reads the build-up and loss of mass on a sensor chip optically.

The target in experiment [2] is T1, recombinant GRP78 protein. Kind of experiment: Biacore SPR, multi-cycle kinetics, GRP78 amine-coupled to the chip, G2D03 as analyte 0.625-10 nM, 1:1 fit, kd/ka.
Source text: as §1, §2

T1 sequence (P11021 19-650 limits assumed): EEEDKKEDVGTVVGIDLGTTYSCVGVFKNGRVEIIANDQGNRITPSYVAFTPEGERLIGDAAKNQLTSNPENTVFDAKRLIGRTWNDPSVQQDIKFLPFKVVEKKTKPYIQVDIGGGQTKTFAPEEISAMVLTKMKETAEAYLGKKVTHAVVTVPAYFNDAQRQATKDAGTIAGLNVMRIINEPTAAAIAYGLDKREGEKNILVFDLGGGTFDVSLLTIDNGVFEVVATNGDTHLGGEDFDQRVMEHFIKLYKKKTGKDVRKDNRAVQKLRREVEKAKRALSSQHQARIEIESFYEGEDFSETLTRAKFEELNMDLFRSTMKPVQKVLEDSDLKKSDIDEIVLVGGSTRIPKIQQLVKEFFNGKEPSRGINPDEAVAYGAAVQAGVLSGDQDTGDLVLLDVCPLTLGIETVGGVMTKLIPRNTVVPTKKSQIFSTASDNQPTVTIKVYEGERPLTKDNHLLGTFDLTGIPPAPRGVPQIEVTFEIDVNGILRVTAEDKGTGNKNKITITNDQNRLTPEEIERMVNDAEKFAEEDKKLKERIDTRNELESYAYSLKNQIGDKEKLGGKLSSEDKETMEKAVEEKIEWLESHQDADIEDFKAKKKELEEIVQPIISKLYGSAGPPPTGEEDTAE

B1: anti-GRP78 antibody G2D03 (antibody, V domains shown)
VH: EVQLVESGGGLVQPGGSLRLSCAASGFTFSQYAMAWVRQAPGKGLEWVSGISPYGSNTRYADSVKGRFTISRDNSKNTLYLQMNSLRAEDTAVYYCARNGGYSYTWFDLWGQGTLVTVSS
VL: DIQMTQSPSSLSASVGDRVTITCRASQSISSDLAWYQQKPGKAPKLLIYWASKLQSGVPSRFSGSGSGTDFTLTISSLQPEDFATYYCMQMYNTPPTFGQGTKVEIKR
notes: Detected with anti-human IgG; also called G2D03 mAb; anti-GRP78 monoclonal antibody (G2D03)
One may read the koff as the rate constant with which the complex falls apart. In general, kon refers to the second-order rate constant of association. What is called Kd is the equilibrium constant for the complex coming apart. Take B1: in experiment [1], the koff is 0.000254 s⁻¹ and the kon amounted to 3.42e+06 M⁻¹ s⁻¹. For the same molecule, the Kd in experiment [2] worked out at 0.0744 nM.

(Values after patent publication US20250019426A1 (UCT BIOSCIENCE, published 2025).)
